The values that follow come from IntAct's records for PubMed 16227972.

B1: Gigaxonin (Homo sapiens), Q9H2C0 (parent)
chain: MAEGSAVSDPQHAARLLRALSSFREESRFCDAHLVLDGEEIPVQKNILAAASPYIRTKLNYNPPKDDGSTYKIELEGISVMVMREILDYIFSGQIRLNEDTIQDVVQAADLLLLTDLKTLCCEFLEGCIAAENCIGIRDFALHYCLHHVHYLATEYLETHFRDVSSTEEFLELSPQKLKEVISLEKLNVGNERYVFEAVIRWIAHDTEIRKVHMKDVMSALWVSGLDSSYLREQMLNEPLVREIVKECSNIPLSQPQQGEAMLANFKPRGYSECIVTVGGEERVSRKPTAAMRCMCPLYDPNRQLWIELAPLSMPRINHGVLSAEGFLFVFGGQDENKQTLSSGEKYDPDANTWTALPPMNEARHNFGIVEIDGMLYILGGEDGEKELISMECYDIYSKTWTKQPDLTMVRKIGCYAAMKKKIYAMGGGSYGKLFESVECYDPRTQQWTAICPLKERRFGAVACGVAMELYVFGGVRSREDAQGSEMVTCKSEFYHDEFKRWIYLNDQNLCIPASSSFVYGAVPIGASIYVIGDLDTGTNYDYVREFKRSTGTWHHTKPLLPSDLRRTGCAALRIANCKLFRLQLQQGLFRIRVHSP

In one assay the parent is B1. As to conditions: with uba1_human UBA1, P22314.
Chain of uba1_human UBA1, P22314 (P22314 whole entry): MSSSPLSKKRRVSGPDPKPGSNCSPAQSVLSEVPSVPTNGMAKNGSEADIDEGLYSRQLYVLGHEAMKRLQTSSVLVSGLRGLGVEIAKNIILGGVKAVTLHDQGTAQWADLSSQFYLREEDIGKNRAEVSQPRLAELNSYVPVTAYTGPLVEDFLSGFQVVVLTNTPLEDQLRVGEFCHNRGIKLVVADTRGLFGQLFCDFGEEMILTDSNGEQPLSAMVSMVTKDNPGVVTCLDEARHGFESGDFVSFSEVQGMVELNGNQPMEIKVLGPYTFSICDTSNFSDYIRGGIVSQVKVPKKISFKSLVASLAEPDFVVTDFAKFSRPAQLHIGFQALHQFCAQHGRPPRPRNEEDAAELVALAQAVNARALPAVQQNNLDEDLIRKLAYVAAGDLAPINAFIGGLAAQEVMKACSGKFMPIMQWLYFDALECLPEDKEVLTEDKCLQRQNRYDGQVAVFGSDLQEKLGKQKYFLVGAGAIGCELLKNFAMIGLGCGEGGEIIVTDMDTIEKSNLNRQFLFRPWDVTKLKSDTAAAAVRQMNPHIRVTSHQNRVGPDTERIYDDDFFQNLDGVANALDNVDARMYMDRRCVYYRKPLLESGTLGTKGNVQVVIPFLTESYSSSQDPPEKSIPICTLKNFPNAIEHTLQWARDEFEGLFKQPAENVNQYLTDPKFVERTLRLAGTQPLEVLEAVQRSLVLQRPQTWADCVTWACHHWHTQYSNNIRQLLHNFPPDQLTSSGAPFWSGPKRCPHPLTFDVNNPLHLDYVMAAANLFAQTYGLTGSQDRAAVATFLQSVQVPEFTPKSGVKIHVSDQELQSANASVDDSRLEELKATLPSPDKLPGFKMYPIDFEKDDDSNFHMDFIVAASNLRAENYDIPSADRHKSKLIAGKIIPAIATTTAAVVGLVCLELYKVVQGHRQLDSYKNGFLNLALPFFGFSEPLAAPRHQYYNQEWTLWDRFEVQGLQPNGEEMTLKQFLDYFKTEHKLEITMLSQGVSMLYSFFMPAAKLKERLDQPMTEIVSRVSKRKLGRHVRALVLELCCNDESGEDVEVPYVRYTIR
With V82F, the “effect of a mutation on the interaction” value was “decreasing interaction”.

The variants in a further assay derive from B1. As to conditions: with uba1_rat Uba1, Q5U300.
Chain of uba1_rat Uba1, Q5U300 (Q5U300 whole entry): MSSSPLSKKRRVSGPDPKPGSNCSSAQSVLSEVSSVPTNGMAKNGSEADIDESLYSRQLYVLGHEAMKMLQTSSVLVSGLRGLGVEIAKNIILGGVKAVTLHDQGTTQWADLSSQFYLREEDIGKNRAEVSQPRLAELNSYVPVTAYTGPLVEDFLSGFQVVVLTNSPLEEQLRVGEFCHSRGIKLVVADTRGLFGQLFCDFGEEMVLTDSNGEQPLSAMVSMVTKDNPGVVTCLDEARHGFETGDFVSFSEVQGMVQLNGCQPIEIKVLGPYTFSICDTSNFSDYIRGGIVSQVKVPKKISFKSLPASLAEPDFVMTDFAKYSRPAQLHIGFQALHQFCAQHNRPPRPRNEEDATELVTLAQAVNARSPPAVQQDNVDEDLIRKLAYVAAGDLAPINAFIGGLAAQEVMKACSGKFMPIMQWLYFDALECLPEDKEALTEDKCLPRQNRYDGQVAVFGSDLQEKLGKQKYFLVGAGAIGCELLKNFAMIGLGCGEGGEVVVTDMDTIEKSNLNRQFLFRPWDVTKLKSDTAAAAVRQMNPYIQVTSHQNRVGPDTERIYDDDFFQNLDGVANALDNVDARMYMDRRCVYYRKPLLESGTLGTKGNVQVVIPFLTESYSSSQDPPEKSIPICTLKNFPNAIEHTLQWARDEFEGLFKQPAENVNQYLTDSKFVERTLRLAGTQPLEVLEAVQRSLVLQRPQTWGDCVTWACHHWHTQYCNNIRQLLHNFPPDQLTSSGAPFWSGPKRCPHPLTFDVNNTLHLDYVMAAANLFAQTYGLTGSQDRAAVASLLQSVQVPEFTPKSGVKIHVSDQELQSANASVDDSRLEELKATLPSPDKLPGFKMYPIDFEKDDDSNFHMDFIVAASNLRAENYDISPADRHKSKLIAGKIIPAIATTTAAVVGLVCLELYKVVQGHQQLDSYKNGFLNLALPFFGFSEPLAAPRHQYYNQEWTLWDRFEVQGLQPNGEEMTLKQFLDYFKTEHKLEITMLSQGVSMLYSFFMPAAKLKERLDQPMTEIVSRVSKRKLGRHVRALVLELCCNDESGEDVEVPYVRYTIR
As for V82F, the “effect of a mutation on the interaction” value is recorded as “decreasing interaction”.
